Experiments:
[1] = molecular target: T1, hepatitis A virus (HAV) full particle, genotype TZ84 (HAV IA genotype) (hepatitis A virus, genotype TZ84 (HAV …)); experiment: SPR
T1 chain 1: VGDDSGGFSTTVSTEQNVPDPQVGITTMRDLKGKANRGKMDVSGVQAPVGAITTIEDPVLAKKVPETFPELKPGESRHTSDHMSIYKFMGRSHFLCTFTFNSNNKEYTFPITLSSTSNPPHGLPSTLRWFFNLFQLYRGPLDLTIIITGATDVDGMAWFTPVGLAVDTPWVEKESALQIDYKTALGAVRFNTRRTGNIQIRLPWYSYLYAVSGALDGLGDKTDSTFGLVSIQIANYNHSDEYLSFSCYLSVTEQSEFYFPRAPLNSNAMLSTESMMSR
T1 chain 2: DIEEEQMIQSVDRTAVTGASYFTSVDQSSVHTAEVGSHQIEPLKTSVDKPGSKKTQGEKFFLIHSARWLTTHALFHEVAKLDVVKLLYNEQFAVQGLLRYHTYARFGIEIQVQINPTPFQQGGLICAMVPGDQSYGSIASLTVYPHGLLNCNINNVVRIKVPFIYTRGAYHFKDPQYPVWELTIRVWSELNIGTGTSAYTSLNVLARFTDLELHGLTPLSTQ
T1 chain 3: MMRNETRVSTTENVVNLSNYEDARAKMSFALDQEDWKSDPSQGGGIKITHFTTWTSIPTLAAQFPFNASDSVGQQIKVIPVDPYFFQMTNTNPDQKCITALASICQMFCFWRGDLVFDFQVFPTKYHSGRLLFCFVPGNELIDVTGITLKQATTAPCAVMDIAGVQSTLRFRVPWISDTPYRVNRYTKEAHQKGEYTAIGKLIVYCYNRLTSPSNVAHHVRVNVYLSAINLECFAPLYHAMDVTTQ

[2] = molecular target: T1, hepatitis A virus (HAV) full particle, …; experiment: SPR

B1: F9 Fab (fragment of antigen binding of the neutralizing monoclonal antibody F9) (Fab, V domains shown)
VH: EVKLVESGGGLVKPGGSLKLSCAASAFTITTYGMSWVRQTPEKRLEWVATITAGGSYTYYPDSVKGRFTISRDNAKNTLYLQMSSLRSGDTAMYYCARKVTSVAEYYFDYWGQGTTLTVSS
VL: DIVLTQSPAIMSASPGEKVTMTCSATSGLSYIHWYQQKSGTSPKRWIYDTSKLAFGAPARFSGSGSGTSYSLTISSMEAEDAATYYCQQWDVNPYTFGGGTKLEIK
koff [1]: 0.000537 s⁻¹
Kd [2]: 7.18 nM

B2: F7 Fab (fragment of antigen binding of the neutralizing monoclonal antibody F7) (Fab, V domains shown)
VH: EVKLVESGGGLVKPGGSLKLSCAASIHTFNCYGMSWVRQTPEKGLEWVATIDAASSYTYYPDSVKGRFTISRDNAKNTLYLQMSSLRSGDTAMYYCARRDNTTAQYYFDYWGQGTTLTVSS
VL: DIVLTQSPAIMSASPGEKVTMTCSAASSVSYIHWYQQKSGTSPKRWIYDTSRLAFGVPTRFSGSGSGTSYSLTISSMEAEDAATYYCQQWSTNPYTFGGGTKLEIK
koff [1]: 0.000743 s⁻¹
Kd [2]: 7.1 nM

B3: R10 Fab (fragment of antigen binding of the neutralizing monoclonal antibody R10) (Fab, V domains shown)
VH: EVKLVESGGGSVKPGGSLKLSCAASGFSFSTYGMSWVRQTPEKRLEWVATISGGGGYTYYPDSVKGRFTISRDNARNILYLQMSSLRSGDTAMYYCARRVTTVAEYYFDYWGQGTTLTVSS
VL: DIVLTQSPAIMSASPGEKVTMTCSASSSVSYIHWYQQKSGTSPKRWIYDTSRLAFGVPGRFSGSGSGTSYSLTISSMEAEDAATYYCQQWSSNYTFGGGTNLEIK
koff [1]: 0.000528 s⁻¹
Kd [2]: 8.13 nM

B4: F4 Fab (fragment of antigen binding of the neutralizing monoclonal antibody F4) (Fab, V domains shown)
VH: EVKLVESGGGLVKPGGSLKLSCAASLFTHNNYGMSWVRQTPEKRLEWVATINSTASYTYYPDSVKGRFTISRDNAKNTLYLQMSSLRSGDTAIYYCARKNDTFSDYYFDYWGQGTTLTVSS
VL: DIVLTQSPAIMSASPGERVTMTCSAHVSTDYMHWYQQKSGTSPKRWIYDTSKLASTVPDRFSGSGSGTSYSLTISSMEAEDAATYYCQQWNNNAYTYGGGTKLEIK
koff [1]: 0.000252 s⁻¹
Kd [2]: 5.14 nM

B5: F6 Fab (fragment of antigen binding of the neutralizing monoclonal antibody F6) (Fab, V domains shown)
VH: EVKLVESGGGLVKPGGSLKLSCAASMYNFQHYGMSWVRQTPEKRLEWVATIQTNATYTYYPDSVKGRFTISRDNARNILYLQMSSLRSGDTAMYYCARRDNIECHYYFDYWGQGTTLTVSS
VL: DIVLTQSPAIMSASPGERVTMTCSAHQYVSYMHWYQQKSGTSPKRWIYDTSRLADAIPQRFSGRGSGTSYSLTISSMEAEDAATYYCQQWQSNPYTFGGGTKLEIK
koff [1]: 0.000134 s⁻¹
Kd [2]: 2.19 nM

— PMC6493668 (2019)
